Measured values published in the Immune Epitope Database (IEDB).

Assays:
HLA-A*01:01 [1] = assay: IEDB peptide-MHC binding, purified MHC/direct/fluorescence; filed as Kd, often an IC50 or EC50 that approximates it; ≥ and ≤ were set here for values at or beyond the usual limits of such assays
HLA-A*02:01 = assay: as above
HLA-A*03:01 = assay: as above
HLA-A*11:01 = assay: as above
HLA-A*24:03 = assay: as above
HLA-A*26:01 = assay: as above
HLA-A*31:01 = assay: as above
HLA-A*69:01 = assay: as above
HLA-B*07:02 = assay: as above
HLA-B*08:01 = assay: as above
HLA-B*15:01 [2] = assay: as above
HLA-B*27:05 = assay: as above
HLA-B*35:01 = assay: as above
HLA-B*40:01 = assay: as above
HLA-B*44:02 = assay: as above
HLA-B*58:01 = assay: as above
HLA-A*30:01 = assay: as above
HLA-A*26:02 = assay: as above
HLA-A*26:03 = assay: as above
HLA-A*68:02 [3] = assay: as above
HLA-B*15:17 [4] = assay: as above
HLA-B*18:01 = assay: as above
HLA-B*39:01 = assay: as above
HLA-B*48:01 = assay: as above
HLA-B*57:01 [5] = assay: as above
HLA-B*73:01 = assay: as above; settings: source organism: Vibrio vulnificus YJ016
HLA-B*08:02 = assay: as above; settings: source organism: Giardia lamblia ATCC 50803
HLA-B*46:01 = assay: as above; settings: source organism: Giardia lamblia ATCC 50803
HLA-A*01:01 [6] = assay: IEDB peptide-MHC binding, purified MHC/competitive/fluorescence; filed as Kd, often an IC50 or EC50 that approximates it; ≥ and ≤ were set here for values at or beyond the usual limits of such assays; settings: source organism: Giardia lamblia ATCC 50803
HLA-A*68:02 [7] = assay: as above; settings: source organism: Giardia lamblia ATCC 50803
HLA-B*15:01 [8] = assay: as above; settings: source organism: Giardia lamblia ATCC 50803
HLA-B*15:17 [9] = assay: as above; settings: source organism: Giardia lamblia ATCC 50803
HLA-B*57:01 [10] = assay: as above; settings: source organism: Giardia lamblia ATCC 50803
[11] = source organism: Escherichia coli O157:H7
[12] = source organism: Giardia intestinalis
[13] = source organism: Rickettsia prowazekii
[14] = source organism: Influenza A virus (A/swine/Italy/809/1989(H3N2))
[15] = source organism: Influenza A virus H3N2
[16] = source organism: Vibrio vulnificus YJ016
[17] = source organism: Giardia lamblia ATCC 50803

Sequence PSSKPDWFY has a Kd (HLA-A*01:01 [1]; [11]) of 0.0197 µM, a Kd (HLA-A*02:01; [11]) of no less than 20 µM and a Kd (HLA-A*03:01; [11]) of no less than 20 µM. The Kd (HLA-A*11:01; [11]) was no less than 20 µM, the Kd (HLA-A*24:03; [11]) was no less than 20 µM and the Kd (HLA-A*26:01; [11]) was no less than 20 µM. For the same sequence, the Kd (HLA-A*31:01; [11]) was no less than 20 µM, the Kd (HLA-A*69:01; [11]) was no less than 20 µM and the Kd (HLA-B*07:02; [11]) was no less than 20 µM. The Kd (HLA-B*08:01; [11]) was no less than 20 µM, the Kd (HLA-B*15:01 [2]; [11]) was 15.2 µM and the Kd (HLA-B*27:05; [11]) was no less than 20 µM. For the same sequence, the Kd (HLA-B*35:01; [11]) was 1.04 µM, the Kd (HLA-B*40:01; [11]) was no less than 20 µM and the Kd (HLA-B*44:02; [11]) was no less than 20 µM. The Kd (HLA-B*58:01; [11]) was no less than 20 µM.
Sequence DYAMHGTVF has a Kd (HLA-A*01:01 [1]; [12]) of no less than 20 µM, a Kd (HLA-A*02:01; [12]) of no less than 20 µM and a Kd (HLA-A*03:01; [12]) of no less than 20 µM. The Kd (HLA-A*24:03; [12]) was 2.36 µM, the Kd (HLA-A*26:01; [12]) was no less than 20 µM and the Kd (HLA-A*30:01; [12]) was no less than 58.5 µM. It also gave a Kd (HLA-A*69:01; [12]) of no less than 20 µM, a Kd (HLA-B*07:02; [12]) of 8.71 µM and a Kd (HLA-B*08:01; [12]) of 14.6 µM. The Kd (HLA-B*15:01 [2]; [12]) was 3.8 µM, the Kd (HLA-B*27:05; [12]) was no less than 20 µM and the Kd (HLA-B*35:01; [12]) was 0.0621 µM. The Kd (HLA-B*40:01; [12]) was no less than 20 µM, the Kd (HLA-B*44:02; [12]) was no less than 20 µM and the Kd (HLA-B*58:01; [12]) was no less than 10 µM.
With QFAGGSFDF the Kd (HLA-A*01:01 [1]; [13]) was no less than 20 µM, the Kd (HLA-A*02:01; [13]) was no less than 20 µM and the Kd (HLA-A*03:01; [13]) was no less than 20 µM. It also gave a Kd (HLA-A*11:01; [13]) of no less than 10 µM, a Kd (HLA-A*24:03; [13]) of 0.336 µM and a Kd (HLA-A*26:01; [13]) of no less than 20 µM. It also gave a Kd (HLA-A*69:01; [13]) of no less than 20 µM, a Kd (HLA-B*07:02; [13]) of no less than 20 µM and a Kd (HLA-B*08:01; [13]) of no less than 20 µM. The Kd (HLA-B*15:01 [2]; [13]) was 0.35 µM, the Kd (HLA-B*35:01; [13]) was 0.0141 µM and the Kd (HLA-B*40:01; [13]) was no less than 20 µM. The Kd (HLA-B*44:02; [13]) was no less than 20 µM and the Kd (HLA-B*58:01; [13]) was 0.0416 µM.
For EEIRRIWRQ, the Kd (HLA-A*01:01 [1]; [14]) was no less than 20 µM, the Kd (HLA-A*02:01; [14]) was no less than 20 µM and the Kd (HLA-A*03:01; [14]) was no less than 20 µM. It also gave a Kd (HLA-A*11:01; [14]) of no less than 20 µM, a Kd (HLA-A*26:02; [15]) of no less than 20 µM and a Kd (HLA-A*26:03; [15]) of no less than 20 µM. It also gave a Kd (HLA-A*31:01; [14]) of no less than 20 µM, a Kd (HLA-A*68:02 [3]; [14]) of no less than 20 µM and a Kd (HLA-A*69:01; [14]) of no less than 20 µM. For the same sequence, the Kd (HLA-B*07:02; [14]) was no less than 20 µM, the Kd (HLA-B*15:01 [2]; [14]) was no less than 20 µM and the Kd (HLA-B*15:17 [4]; [14]) was no less than 20 µM. It also gave a Kd (HLA-B*18:01; [14]) of 9.02 µM, a Kd (HLA-B*27:05; [14]) of no less than 20 µM and a Kd (HLA-B*39:01; [15]) of no less than 20 µM. For the same sequence, the Kd (HLA-B*40:01; [14]) was no less than 20 µM, the Kd (HLA-B*44:02; [14]) was no less than 20 µM and the Kd (HLA-B*48:01; [14]) was no less than 20 µM. The Kd (HLA-B*57:01 [5]; [14]) was no less than 20 µM and the Kd (HLA-B*58:01; [14]) was no less than 20 µM.
Work on KRFYQTVGF yielded a Kd (HLA-A*01:01 [1]; [16]) of no less than 20 µM, a Kd (HLA-A*02:01; [16]) of no less than 20 µM and a Kd (HLA-A*03:01; [16]) of no less than 20 µM. It also gave a Kd (HLA-A*11:01; [16]) of no less than 20 µM, a Kd (HLA-A*26:02; [16]) of no less than 20 µM and a Kd (HLA-A*26:03; [16]) of no less than 20 µM. It also gave a Kd (HLA-A*31:01; [16]) of no less than 20 µM, a Kd (HLA-A*68:02 [3]; [16]) of no less than 20 µM and a Kd (HLA-A*69:01; [16]) of no less than 20 µM. The Kd (HLA-B*07:02; [16]) was no less than 20 µM, the Kd (HLA-B*08:01; [16]) was no less than 20 µM and the Kd (HLA-B*15:01 [2]; [16]) was no less than 20 µM. The Kd (HLA-B*15:17 [4]; [16]) was no less than 20 µM, the Kd (HLA-B*18:01; [16]) was no less than 20 µM and the Kd (HLA-B*27:05; [16]) was 0.0895 µM. It also gave a Kd (HLA-B*39:01; [16]) of no less than 20 µM, a Kd (HLA-B*48:01; [16]) of no less than 20 µM and a Kd (HLA-B*57:01 [5]; [16]) of no less than 20 µM. For the same sequence, the Kd (HLA-B*58:01; [16]) was no less than 20 µM and the Kd (HLA-B*73:01) was 4 µM.
For FMGRLGPEY, the Kd (HLA-A*01:01 [1]; [17]) was 4.09 µM, the Kd (HLA-A*02:01; [17]) was no less than 20 µM and the Kd (HLA-A*03:01; [17]) was no less than 20 µM. The Kd (HLA-A*11:01; [17]) was no less than 20 µM, the Kd (HLA-A*24:03; [17]) was no less than 5 µM and the Kd (HLA-A*26:01; [17]) was no less than 20 µM. It also gave a Kd (HLA-A*30:01; [17]) of 16.1 µM, a Kd (HLA-A*31:01; [17]) of no less than 20 µM and a Kd (HLA-A*69:01; [17]) of no less than 20 µM. The Kd (HLA-B*08:01; [17]) was no less than 20 µM, the Kd (HLA-B*15:01 [2]; [17]) was 0.14 µM and the Kd (HLA-B*27:05; [17]) was no less than 20 µM. The Kd (HLA-B*35:01; [17]) was 0.117 µM, the Kd (HLA-B*40:01; [17]) was no less than 20 µM and the Kd (HLA-B*44:02; [17]) was no less than 20 µM. It also gave a Kd (HLA-B*58:01; [17]) of no less than 20 µM.
Work on KSNRIPFLY yielded a Kd (HLA-A*02:01; [17]) of no less than 20 µM, a Kd (HLA-A*03:01; [17]) of 0.022 µM and a Kd (HLA-A*11:01; [17]) of 0.007 µM. The Kd (HLA-A*26:01; [17]) was no less than 20 µM, the Kd (HLA-A*26:02; [17]) was no less than 20 µM and the Kd (HLA-A*26:03; [17]) was no less than 20 µM. For the same sequence, the Kd (HLA-A*31:01; [17]) was 2.37 µM, the Kd (HLA-B*07:02; [17]) was no less than 20 µM and the Kd (HLA-B*08:01; [17]) was no less than 20 µM. It also gave a Kd (HLA-B*08:02) of no less than 20 µM, a Kd (HLA-B*18:01; [17]) of no less than 20 µM and a Kd (HLA-B*27:05; [17]) of no less than 20 µM. The Kd (HLA-B*40:01; [17]) was no less than 20 µM, the Kd (HLA-B*46:01) was no less than 20 µM and the Kd (HLA-B*48:01; [17]) was no less than 20 µM. It also gave a Kd (HLA-B*58:01; [17]) of 0.002 µM, a Kd (HLA-A*01:01 [6]) of 0.203 µM and a Kd (HLA-A*68:02 [7]) of no less than 20 µM. For the same sequence, the Kd (HLA-B*15:01 [8]) was 0.212 µM, the Kd (HLA-B*15:17 [9]) was 0.01 µM and the Kd (HLA-B*57:01 [10]) was 0.243 µM.
